Measured values from IntAct's records for PubMed 26601939.

B1: Syndecan-2 (Rattus norvegicus (Rat)), P34900 (parent)
chain: MQRAWILLTLGLMACVSAETRAELTSDKDMYLDSSSIEEASGLYPIDDDDYSSASGSGAYEDKGSPDLTTSQLIPRISLTSAAPEVETMTLKTQSITPTQTESPEETDKKEFEISEAEEKQDPAVKSTDVYTEKHSDNLFKRTEVLAAVIAGGVIGFLFAIFLILLLVYRMRKKDEGSYDLGERKPSSAAYQKAPTKEFYA
partner: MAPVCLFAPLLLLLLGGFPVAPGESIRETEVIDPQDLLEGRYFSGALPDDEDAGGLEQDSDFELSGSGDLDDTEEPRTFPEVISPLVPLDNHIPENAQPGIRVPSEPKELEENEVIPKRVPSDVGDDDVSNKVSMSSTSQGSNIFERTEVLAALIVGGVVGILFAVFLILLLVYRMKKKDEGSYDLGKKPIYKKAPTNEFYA
B2: Syndecan-4 (Rattus norvegicus (Rat)), P34901 (parent)
chain: B1 partner
partner: B1 chain
B3: Syndecan-2 (Rattus norvegicus (Rat)), P34900 (parent)
chain: B1 chain
partner: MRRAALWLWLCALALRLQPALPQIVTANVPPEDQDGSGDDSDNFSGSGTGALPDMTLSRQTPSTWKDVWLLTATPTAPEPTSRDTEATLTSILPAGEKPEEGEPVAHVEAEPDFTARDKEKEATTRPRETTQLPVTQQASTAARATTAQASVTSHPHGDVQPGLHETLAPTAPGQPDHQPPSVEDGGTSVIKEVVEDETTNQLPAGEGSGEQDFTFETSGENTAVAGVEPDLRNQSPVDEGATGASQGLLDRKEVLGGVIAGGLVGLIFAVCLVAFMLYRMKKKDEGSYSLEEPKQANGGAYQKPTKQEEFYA
B4: Syndecan-4 (Rattus norvegicus (Rat)), P34901 (parent)
chain: B1 partner
partner: B3 partner
B5: Syndecan-1 (Rattus norvegicus (Rat)), P26260 (parent)
chain: B3 partner
partner: B1 chain
B6: Syndecan-2 (Rattus norvegicus (Rat)), P34900 (parent)
chain: B1 chain
B7: Syndecan-4 (Rattus norvegicus (Rat)), P34901 (parent)
chain: B1 partner

Variants of: B1
Details: with sdc4_rat Sdc4, P34901

Row | Variant | effect of a mutation on the interaction
1 | F157Y | disrupting interaction strength
2 | F159Y | decreasing interaction strength
3 | F162Y | with no effect

Variants of: B1
Details: with sdc4_rat Sdc4, P34901
Remark: another data set of the same source

Row | Variant | effect of a mutation on the interaction
4 | F159Y | decreasing interaction

Variants of: B1
Details: with sdc4_rat Sdc4, P34901
Remark: another data set of the same source

Row | Variant | effect of a mutation on the interaction
5 | F159Y | disrupting interaction strength

Variants of: B2
Details: with sdc2_rat Sdc2, P34900

Row | Variant | effect of a mutation on the interaction
6 | F164Y | decreasing interaction strength

Variants of: B3
Details: with sdc1_rat Sdc1, P26260

Row | Variant | effect of a mutation on the interaction
7 | F162Y | with no effect

Variants of: B4
Details: with sdc1_rat Sdc1, P26260

Row | Variant | effect of a mutation on the interaction
8 | F164Y | decreasing interaction strength

Variants of: B5
Details: with sdc2_rat Sdc2, P34900

Row | Variant | effect of a mutation on the interaction
9 | F269Y | disrupting interaction strength
10 | F269Y;C272F | disrupting interaction strength
11 | C272F | with no effect

Variants of: B6
Details: with sdc3_rat Sdc3, P33671
Sequence of sdc3_rat Sdc3, P33671 (P33671 whole entry): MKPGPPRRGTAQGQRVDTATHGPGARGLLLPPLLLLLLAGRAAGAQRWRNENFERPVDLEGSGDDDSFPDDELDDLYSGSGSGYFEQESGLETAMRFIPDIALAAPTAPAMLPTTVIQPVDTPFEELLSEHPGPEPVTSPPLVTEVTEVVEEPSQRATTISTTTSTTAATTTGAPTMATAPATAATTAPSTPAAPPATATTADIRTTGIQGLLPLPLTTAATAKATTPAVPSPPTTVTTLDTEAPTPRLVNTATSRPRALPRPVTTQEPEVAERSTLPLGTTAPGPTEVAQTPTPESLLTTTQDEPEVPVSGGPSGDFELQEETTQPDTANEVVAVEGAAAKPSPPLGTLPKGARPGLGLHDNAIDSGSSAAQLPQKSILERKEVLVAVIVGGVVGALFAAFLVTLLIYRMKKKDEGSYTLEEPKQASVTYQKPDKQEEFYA

Row | Variant | effect of a mutation on the interaction
12 | F159Y | decreasing interaction strength

Variants of: B7
Details: with sdc3_rat Sdc3, P33671

Row | Variant | effect of a mutation on the interaction
13 | F164Y | decreasing interaction strength
